Measured values taken from patent US20040258656, “High affinity TGFbeta nucleic acid ligands and inhibitors” (published 2004).

Assays:
[1] = molecular target: T1, TGFβ2 (transforming growth factor beta 2) (Homo sapiens, UniProt P61812 SEQ:1-112); assay: filter; 37C; Ki 10 nM in cell assay; conditions: chain copies: 2 (inferred, homodimer)
T1 sequence: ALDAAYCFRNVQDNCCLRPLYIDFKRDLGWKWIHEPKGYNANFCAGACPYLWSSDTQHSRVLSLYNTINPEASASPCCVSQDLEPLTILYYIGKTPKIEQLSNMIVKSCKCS
Method: (§1) The binding activity of individual ligands was determined by measuring the equilibrium dissociation constants using nitrocellulose partitioning of labeled RNA as a function of protein concentration. RNA was body-labeled or guanylated and then 5′-end labeled with γ-³²P ATP and T4 polynucleotide kinase. Binding reactions were set at various protein concentrations (typically varied in either 3-fold or 10-fold increments) while maintaining the labeled RNA concentration constant at less than 0.1 nM, and incubated at 37° C. for 10 minutes. Protein-RNA complexes were partitioned away from uncomplexed RNA, by filtering the binding reactions through a nitrocellulose/cellulose acetated mixed matrix (0.45 μm pore size filter disks, type HA; Millipore, Co., Bedford, Mass.). For filtration, the filters were placed onto a vacuum manifold (12-well, Millipore, or 96-well BRL) and wetted by aspirating 1-5 ml of binding buffer. The binding reactions were aspirated through the filters, washed with 1-5 ml of binding buffer and counted in a scintillation counter (Beckmann).

[2] = molecular target: T1, TGFβ2 (transforming growth factor beta …); assay: filter; Table 18 footnote states ~1 nM; Ki ~10 nM; conditions: chain copies: 2 (inferred, homodimer)
[3] = molecular target: TGFβ1 (transforming growth factor beta 1) (Homo sapiens, UniProt P01137 SEQ:1-112)
[4] = molecular target: T1, TGFβ2 (transforming growth factor beta …); assay: filter; conditions: chain copies: 2 (inferred, homodimer)
[5] = molecular target: T1, TGFβ2 (transforming growth factor beta …); assay: cell_activity; mink lung epithelial cell proliferation; conditions: chain copies: 2 (inferred, homodimer)
Method: (§2) The bioactivity of TGFβ2 nucleic acid ligands was measured with mink lung epithelial cells. Proliferation of these cells is inhibited by TGFβ2. Human TGFβ2 was titrated on the cells and ³H-thymidine incorporation was measured. […] This inhibitory amount of TGFβ2 along with varying amounts of nucleic acid ligand (typically 0.3 or 1 nM to 1 or 3 μM, in 3 fold increments) was used. Typically, cells were plated at 10E5/ml in 96-well plates in 100 μl MEM, 10 mM HEPES pH 7.4, 0.2% FBS. […] After incubation, the cells were lysed with 1% Triton X-100 and harvested onto GF/B filter plates in a Packard 96 well plate harvester, and ³H-thymidine incorporation in cellular DNA was quantitated by scintillation counting in MicroScint (Packard, Mariden, Conn.) in a Packard Top-Count. Data were plotted as % of maximum ³H-thymidine incorporation vs RNA concentration, and were fitted by the software Kaleidagraph (Synergy Software, Reading, Pa.) to the equation m3*(m0+m1+(m2)−((m0+m1+(m2))*(m0+m1+(m2))−4*(m0)*( m2)))\hat{ }0.5)/(2*(m2)); where m0 is the concentration of competitor RNA; m1 is the IC50, m2 is the concentration of TGFβ2, and m3 is the plateau value of the fraction of maximum ³H-thymidine incorporation.

[6] = molecular target: T1, TGFβ2 (transforming growth factor beta …); assay: filter; 37C; Ki 30 nM in cell assay; conditions: chain copies: 2 (inferred, homodimer)
Method: as §1

[7] = molecular target: T1, TGFβ2 (transforming growth factor beta …); assay: filter; 37C; Ki 230 nM in cell assay; conditions: chain copies: 2 (inferred, homodimer)
Method: as §1

[8] = molecular target: T1, TGFβ2 (transforming growth factor beta …); assay: cell_activity; mink lung epithelial cell proliferation; conditions: chain copies: 2 (homodimer, stated)
Method: as §2, with “incorporation. […]” for “incorporation.”

[9] = molecular target: T1, TGFβ2 (transforming growth factor beta …); assay: cell_activity; mink lung epithelial cell proliferation; text p154 about 200 nM; conditions: chain copies: 2 (homodimer, stated)
Method: as §2, with “incorporation. […]” for “incorporation.”

Sequence of TGFβ1 (transforming growth factor beta 1) (P01137 279-390): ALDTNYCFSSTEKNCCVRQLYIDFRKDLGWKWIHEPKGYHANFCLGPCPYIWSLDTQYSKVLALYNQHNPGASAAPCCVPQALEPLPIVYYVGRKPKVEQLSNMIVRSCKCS

B1: 21a-21 (ssRNA)
RNA: GGGAGGACGAUGCGGUUCAGGAGGUUAUUACAGAGUCUGUAUAGCUGUACUCCCCAGACGACUCGCCCGA
modifications: 2'-F C and U
How did the Kd [1] turn out when B1 was run?
Its Kd is ~1 nM.

B2: NX22284 (ssRNA)
RNA: GGAGGUUAUUACAGAGUCUGUAUAGCUGUACUCC
modifications: 2'-F C and U; 3'-3' dT cap
B2 was tested. Which Kd [2] did it give?
Its Kd is ~2 nM.

B3: ChD70-m13 (ssRNA)
RNA: GGGUGCCUUUUGCCUAGGUUGUGAUUUGUAACCUUCUGCCCA
modifications: 2'-OMe purines at 21, 23-24, 28 and 30
Does B3 bind [3]?
Result: binds

B4: NX22283 (ssRNA)
RNA: GGAGGUUAUUACAGAGUCUGUAUAGCUGUACUCCCC
modifications: 2'-F C and U; 3'-3' dT cap
Which results are given for B4?
binding signal [4]: 0.6 x Kd of NX22284; Ki [5]: 10 nM

B5: 21a-4 (ssRNA)
RNA: GGGAGGACGAUGCGGCGUUGUUUAGUCGUAUGUAUAUACUAAGUCCGCUUGUCCCCAGACGACUCGCCCGA
modifications: 2'-F C and U
With B5 as the binder, how does the Kd [6] read?
The Kd was ~3 nM.

B6: 14i-1 (ssRNA)
RNA: GGGAGGACGAUGCGGAAGUAACGUUGUAGUAAAAUUCGUUCUCUCGGCAUUUGGCCAGACGACUCGCCCGA
modifications: 2'-F C and U
B6 was tested. Which Kd [7] did it give?
Its Kd is ~10 nM.

B7: 21a-21 (ssRNA)
RNA: GGGAGGACGAUGCGGUUCAGGAGGUUAUUACAGAGUCUGUAUAGCUGUACUCCCCAGACGACUCGCCCGA
modifications: 2'-F C and U; 2'-OH A and G
For B7, which Ki [8] is on record?
Its Ki is 10 nM.

B8: 21a-4 (ssRNA)
RNA: GGGAGGACGAUGCGGCGUUGUUUAGUCGUAUGUAUAUACUAAGUCCGCUUGUCCCCAGACGACUCGCCCGA
modifications: 2'-F C and U; 2'-OH A and G
B8 was tested. Which Ki [8] did it give?
Its Ki is 30 nM.

B9: 14i-1 (ssRNA)
RNA: GGGAGGACGAUGCGGAAGUAACGUUGUAGUAAAAUUCGUUCUCUCGGCAUUUGGCCAGACGACUCGCCCGA
modifications: 2'-F C and U; 2'-OH A and G
For B9, which Ki [9] is on record?
Its Ki is 230 nM.
